US20230144608A1, “CLEAVABLE LINKERS” (Xilio Development, Inc., priority 2021, published 2023)

How the values were obtained:
CatB = CatB (Homo sapiens, UniProt P07858); assay: Cleavage by recombinant protease Cathepsin B; format: biochemical; conditions: initial rate
Protocol: (§1) In this example, the peptides library was subjected to cleavage screening by biological matrices, i.e., tumor conditioned media (TCM). The cleavage of the peptides library by plasma was performed for comparison. Each peptide in the library includes a fluorescent mark at one end of its sequence and a quencher on the other end of the sequence. Upon cleavage of the peptide, the quencher is separated from the fluorescent mark, thereby releasing the fluorescent mark. The peptide substrates with the highest ratio of (initial rate of cleavage by tumor conditioned media (TCM) - initial rate of cleavage by plasma) in pmol/min, from cancer patients were identified.
(§2) The peptides with high ratio of initial rate of cleavage by tumor conditioned media (TCM) to initial rate of cleavage by plasma were further screened using recombinant proteases. The peptide substrates that have high initial rates (uM/h) of cleavage by recombinant proteases were identified (Table 4).

MMP-8 = MMP-8 (Homo sapiens, UniProt P22894); assay: Cleavage by recombinant protease MMP-8; format: biochemical; conditions: initial rate, recombinant MMP-8
Sequence of MMP-8 (P22894 101-467): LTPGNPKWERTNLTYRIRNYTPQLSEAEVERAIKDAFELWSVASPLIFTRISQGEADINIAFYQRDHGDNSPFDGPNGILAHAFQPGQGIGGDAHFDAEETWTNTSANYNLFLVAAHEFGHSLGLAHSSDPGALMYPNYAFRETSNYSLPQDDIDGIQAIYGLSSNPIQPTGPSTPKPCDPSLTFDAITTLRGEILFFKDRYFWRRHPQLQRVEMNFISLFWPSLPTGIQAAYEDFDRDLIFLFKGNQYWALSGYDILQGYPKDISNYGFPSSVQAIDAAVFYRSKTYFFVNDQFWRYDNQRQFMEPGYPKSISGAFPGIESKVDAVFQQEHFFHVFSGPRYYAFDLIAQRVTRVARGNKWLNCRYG
Protocol: as §1, §2

MMP-14 = MMP-14 (Homo sapiens, UniProt P50281); assay: Cleavage by recombinant protease MMP-14; format: biochemical; conditions: initial rate, recombinant MMP-14
Protocol: as §1, §2

MMP-9 = MMP-9 (Homo sapiens, UniProt P14780); assay: Cleavage by recombinant protease MMP-9; format: biochemical; conditions: initial rate, recombinant MMP-9
Sequence of MMP-9 (P14780 94-707): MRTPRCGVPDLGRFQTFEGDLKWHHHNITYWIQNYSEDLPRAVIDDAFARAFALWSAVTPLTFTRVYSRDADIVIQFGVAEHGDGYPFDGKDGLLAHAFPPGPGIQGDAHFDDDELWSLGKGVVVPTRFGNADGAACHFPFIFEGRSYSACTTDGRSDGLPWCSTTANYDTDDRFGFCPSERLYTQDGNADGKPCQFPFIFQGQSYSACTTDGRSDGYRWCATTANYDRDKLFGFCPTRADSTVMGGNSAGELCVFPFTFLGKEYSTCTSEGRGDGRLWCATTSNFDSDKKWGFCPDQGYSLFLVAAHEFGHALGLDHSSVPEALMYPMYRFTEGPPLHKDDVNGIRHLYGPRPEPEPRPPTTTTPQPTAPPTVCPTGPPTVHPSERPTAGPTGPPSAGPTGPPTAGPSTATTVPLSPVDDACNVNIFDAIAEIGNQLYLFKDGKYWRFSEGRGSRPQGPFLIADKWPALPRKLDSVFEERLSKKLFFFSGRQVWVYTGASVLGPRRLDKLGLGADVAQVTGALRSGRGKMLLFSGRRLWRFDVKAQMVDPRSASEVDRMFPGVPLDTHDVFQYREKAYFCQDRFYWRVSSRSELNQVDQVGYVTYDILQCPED
Protocol: as §1, §2

MMP-1 = target: T1, MMP-1 (Homo sapiens, UniProt P03956); assay: Cleavage by recombinant protease MMP-1; format: biochemical; conditions: initial rate, recombinant MMP-1
T1 sequence (P03956 100-469): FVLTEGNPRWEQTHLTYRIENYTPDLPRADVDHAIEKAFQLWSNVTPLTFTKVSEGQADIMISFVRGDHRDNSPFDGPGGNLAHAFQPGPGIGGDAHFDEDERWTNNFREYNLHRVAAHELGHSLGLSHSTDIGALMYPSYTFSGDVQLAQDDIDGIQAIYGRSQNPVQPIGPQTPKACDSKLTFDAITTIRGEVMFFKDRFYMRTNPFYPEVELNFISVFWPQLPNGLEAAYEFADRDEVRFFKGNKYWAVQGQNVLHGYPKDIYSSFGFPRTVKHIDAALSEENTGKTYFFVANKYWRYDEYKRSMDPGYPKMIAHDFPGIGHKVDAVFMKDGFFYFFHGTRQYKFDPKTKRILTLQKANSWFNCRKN
Protocol: as §1, §2

MMP-7 = target: T2, MMP-7 (Homo sapiens, UniProt P09237); assay: Cleavage by recombinant protease MMP-7; format: biochemical; conditions: initial rate, recombinant MMP-7
T2 sequence (P09237 95-267): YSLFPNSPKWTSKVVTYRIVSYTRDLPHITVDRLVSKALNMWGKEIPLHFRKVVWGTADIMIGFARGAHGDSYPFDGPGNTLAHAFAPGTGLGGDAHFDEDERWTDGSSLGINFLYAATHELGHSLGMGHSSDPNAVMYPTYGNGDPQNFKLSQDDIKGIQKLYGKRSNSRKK
Protocol: as §1, §2

MMP-10 = MMP-10 (Homo sapiens, UniProt P09238); assay: Cleavage by recombinant protease MMP-10; format: biochemical; conditions: initial rate, recombinant MMP-10
Sequence of MMP-10 (P09238 99-476): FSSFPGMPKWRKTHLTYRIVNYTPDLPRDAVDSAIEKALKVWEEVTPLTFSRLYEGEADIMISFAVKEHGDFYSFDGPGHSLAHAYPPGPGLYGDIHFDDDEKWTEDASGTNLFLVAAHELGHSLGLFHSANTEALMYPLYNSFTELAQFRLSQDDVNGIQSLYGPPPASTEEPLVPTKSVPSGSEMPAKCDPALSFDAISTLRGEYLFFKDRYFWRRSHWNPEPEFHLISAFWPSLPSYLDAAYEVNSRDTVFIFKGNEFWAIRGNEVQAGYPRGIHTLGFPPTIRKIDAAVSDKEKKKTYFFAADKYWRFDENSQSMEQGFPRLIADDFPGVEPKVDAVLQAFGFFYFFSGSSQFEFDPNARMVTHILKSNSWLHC
Protocol: as §1, §2

MMP-2 = target: T3, MMP-2 (Homo sapiens, UniProt P08253); assay: Cleavage by recombinant protease MMP-2; format: biochemical; conditions: initial rate, recombinant MMP-2
T3 sequence (P08253 110-660): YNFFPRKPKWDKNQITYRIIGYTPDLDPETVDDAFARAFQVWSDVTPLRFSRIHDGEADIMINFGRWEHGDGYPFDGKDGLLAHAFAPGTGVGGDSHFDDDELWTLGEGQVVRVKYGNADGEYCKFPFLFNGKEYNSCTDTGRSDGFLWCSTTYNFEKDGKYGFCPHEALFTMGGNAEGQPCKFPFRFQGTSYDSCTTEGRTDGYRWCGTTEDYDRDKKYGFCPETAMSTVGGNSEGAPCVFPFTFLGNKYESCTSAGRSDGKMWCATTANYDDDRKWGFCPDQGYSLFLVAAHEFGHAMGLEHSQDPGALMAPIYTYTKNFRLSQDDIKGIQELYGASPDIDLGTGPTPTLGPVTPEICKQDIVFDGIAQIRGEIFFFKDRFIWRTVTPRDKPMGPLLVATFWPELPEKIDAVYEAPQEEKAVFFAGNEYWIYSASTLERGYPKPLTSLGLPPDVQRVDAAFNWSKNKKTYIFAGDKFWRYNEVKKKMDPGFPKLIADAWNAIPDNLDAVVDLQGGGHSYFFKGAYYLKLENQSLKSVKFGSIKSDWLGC
Protocol: as §1, §2

[1] = system: H&N tumor conditioned media (TCM) and plasma; assay: Fluorescence-quencher peptide cleavage screening, H&N tumor conditioned media versus plasma; format: biochemical, human; conditions: Head and Neck cancer patients; fluorophore/quencher-labelled peptide
Protocol: as §1

[2] = system: RCC tumor conditioned media (TCM) and plasma; assay: Fluorescence-quencher peptide cleavage screening, RCC tumor conditioned media versus plasma; format: biochemical, human; conditions: RCC patients; fluorophore/quencher-labelled peptide
Protocol: as §1

[3] = system: 'RCC' (Renal Cell Carcinoma) culture supernatant; assay: Cleavage of synthetic peptides in RCC culture supernatant (MSP-MS); format: biochemical; conditions: for Earliest cleaved time point -RCC: RCC culture supernatant, MSP-MS; for RCC + CFZ: cleavage in RCC culture supernatant, carfilzomib (CFZ) in the incubation media, given as fraction x/5
Protocol: (§3) Sequences comprising cleavage peptides […] (SEQ ID NO: 1) or […] (SEQ ID NO:2) (shown in bold below) were incubated in either ‘NAT’ (Normal Adjacent Tissue) or ‘RCC’ (Renal Cell Carcinoma) culture supernatants, to test the specificity of each peptide’s cleavage. Carfilzomib (CFZ) is also included in the incubation media as an inhibitor of proteosome, to inhibit false positive cleavage.
(§4) To this end, peptide sequencing by mass spectrometry was used to identify cleaved fragments produced for the synthetic peptides shown in the table below, using a published technique called multiplexed substrate profiling by mass spectrometry (MSP-MS) (O’Donoghue A.J. et al. Nat Methods. 2012 Nov;9(11):1095-100.) Cleavages were monitored in these reactions over time, and the peptides found to be cleaved in the earliest time points were deemed to be most sensitive to proteolytic activity in the conditioned media samples.

[4] = system: 'NAT' (Normal Adjacent Tissue) culture supernatant; assay: Cleavage of synthetic peptides in NAT culture supernatant (MSP-MS); format: biochemical; conditions: for Earliest cleaved time point -NAT: NAT culture supernatant, MSP-MS; for NAT + CFZ: cleavage in NAT culture supernatant, carfilzomib (CFZ) in the incubation media, given as fraction x/5
Protocol: as §3, §4

[5] = patients who received a 5-minute intravenous (IV) infusion; product label; cited from earlier work

| Substance | Rates of cleavage by recombinant proteases, CatB (CatB) | Rates of cleavage by recombinant proteases, MMP-8 (MMP-8) | Rates of cleavage by recombinant proteases, MMP-14 (MMP-14) | Rates of cleavage by recombinant proteases, MMP-9 (MMP-9) | Rates of cleavage by recombinant proteases, MMP-1 (MMP-1) | Rates of cleavage by recombinant proteases, MMP-7 (MMP-7) | Rates of cleavage by recombinant proteases, MMP-10 (MMP-10) | Rates of cleavage by recombinant proteases, MMP-2 (MMP-2) | Initial cleavage rate difference, tumor conditioned media minus plasma [1] | Initial cleavage rate in tumor conditioned media minus initial cleavage rate in plasma [2] | Earliest cleaved time point -RCC [3] | RCC + CFZ [3] | Earliest cleaved time point -NAT [4] | NAT + CFZ [4] | half-life [5] |
| --- | --- | --- | --- | --- | --- | --- | --- | --- | --- | --- | --- | --- | --- | --- | --- |
| PANLVAPDP [proteolytically cleavable peptide (CP), protease substrate] | 0.0 µM/h | 7.2 µM/h | 0.7 µM/h | 8.8 µM/h | 2.7 µM/h | 2.5 µM/h | 1.8 µM/h | 31.2 µM/h | 0.4 pmol/min | 0.1 pmol/min | – | – | – | – | – |
| PVSLRSGS [proteolytically cleavable peptide (CP), protease substrate] | 0.0 µM/h | 0.1 µM/h | 0.0 µM/h | 6.5 µM/h | 0.0 µM/h | 0.2 µM/h | 0.0 µM/h | 1.9 µM/h | 0.0 pmol/min | 0.2 pmol/min | – | – | – | – | – |
| RQGGM*PKDLYHA*SAKQ (RQGGMPKDLYHASAKQ) [Alu-XT-091, * indicates cleavage site] | – | – | – | – | – | – | – | – | – | – | 15 min | 5/5 | 5 min | 1/5 | – |
| RVGPVSL*R*SGSGKI (RVGPVSLRSGSGKI) [Alu-XT-019, * indicates cleavage site] | – | – | – | – | – | – | – | – | – | – | 15 min | 5/5 | 5 min | 1/5 | – |
| TQKPLGLS [proteolytically cleavable peptide (CP), protease substrate] | 0.3 µM/h | 0.1 µM/h | 0.1 µM/h | 0.3 µM/h | 0.0 µM/h | 1.8 µM/h | 0.0 µM/h | 11.8 µM/h | 0.2 pmol/min | 0.2 pmol/min | – | – | – | – | – |
| aldesleukin | – | – | – | – | – | – | – | – | – | – | – | – | – | – | 1.42 h |

Continued, in another order:

| Rates of cleavage by recombinant proteases, CatB (CatB) | Rates of cleavage by recombinant proteases, MMP-8 (MMP-8) | Rates of cleavage by recombinant proteases, MMP-14 (MMP-14) | Rates of cleavage by recombinant proteases, MMP-9 (MMP-9) | Rates of cleavage by recombinant proteases, MMP-1 (MMP-1) | Rates of cleavage by recombinant proteases, MMP-7 (MMP-7) | Rates of cleavage by recombinant proteases, MMP-10 (MMP-10) | Rates of cleavage by recombinant proteases, MMP-2 (MMP-2) | Substance | Initial cleavage rate difference, tumor conditioned media minus plasma [1] | Initial cleavage rate in tumor conditioned media minus initial cleavage rate in plasma [2] | Earliest cleaved time point -RCC [3] | RCC + CFZ [3] | Earliest cleaved time point -NAT [4] | NAT + CFZ [4] | half-life [5] |
| --- | --- | --- | --- | --- | --- | --- | --- | --- | --- | --- | --- | --- | --- | --- | --- |
| 1.0 µM/h | 0.5 µM/h | 2.1 µM/h | 1.8 µM/h | 0.0 µM/h | 2.4 µM/h | 1.6 µM/h | 29.6 µM/h | APAGLIVPYN [proteolytically cleavable peptide (CP), protease substrate] | 0.1 pmol/min | 0.2 pmol/min | – | – | – | – | – |
| 1.9 µM/h | 0.0 µM/h | 0.0 µM/h | 0.0 µM/h | 0.0 µM/h | 0.0 µM/h | 0.0 µM/h | 0.0 µM/h | IVGRPRHQGV [proteolytically cleavable peptide (CP), protease substrate] | 0.1 pmol/min | 0.6 pmol/min | – | – | – | – | – |
| 0.3 µM/h | 0.2 µM/h | 0.0 µM/h | 0.2 µM/h | 0.1 µM/h | 0.2 µM/h | 0.0 µM/h | 1.1 µM/h | RPLALWRS [proteolytically cleavable peptide (CP), protease substrate] | 0.0 pmol/min | 0.5 pmol/min | – | – | – | – | – |
| 1.9 µM/h | 0.0 µM/h | 0.0 µM/h | 0.0 µM/h | 0.0 µM/h | 0.0 µM/h | 0.0 µM/h | 0.0 µM/h | RSKYLATA [proteolytically cleavable peptide (CP), protease substrate] | 0.0 pmol/min | 0.3 pmol/min | – | – | – | – | – |
